This note sets out measurements from article PMC4729865 (Nature Communications, 2016).

To fix the notation:
B1: Flag-Cep57 (natural protein, human, UniProt Q86XR8 1-500, looked up)
chain: MAAASVSAASGSHLSNSFAEPSRSNGSMVRHSSSPYVVYPSDKPFLNSDLRRSPSKPTLAYPESNSRAIFSALKNLQDKIRRLELERIQAEESVKTLSRETIEYKKVLDEQIQERENSKNEESKHNQELTSQLLAAENKCNLLEKQLEYMRNMIKHAEMERTSVLEKQVSLERERQHDQTHVQSQLEKLDLLEQEYNKLTTMQALAEKKMQELEAKLHEEEQERKRMQAKAAELQTGLETNRLIFEDKATPCVPNARRIKKKKSKPPEKKSSRNYFGAQPHYRLCLGDMPFVAGKSTSPSHAVVANVQLVLHLMKQHSKALCNDRVINSIPLAKQVSSRGGKSKKLSVTPPSSNGINEELSEVLQTLQDEFGQMSFDHQQLAKLIQESPTVELKDKLECELEALVGRMEAKANQITKVRKYQAQLEKQKLEKQKKELKATKKTLDEERNSSSRSGITGTTNKKDFMKLRPGEKRRKNLQLLKDMQSIQNSLQSSSLCWDY
notes: Cep57 (translokin), human; cDNA amplified from a HeLa cell cDNA library; also called purified Cep57 from HEK293T cells; source: HEK293T, purified (anti-Flag beads, 600 mM NaCl wash, eluted by 3 x Flag peptides); not shown: Flag, N-terminal, kept

Holding throughout (conditions): both partners purified
In one test the target is T1, Mad1-GFP (human, UniProt Q9Y6D9 1-718).
T1 construct: Mad1, human; cDNA amplified from a HeLa cell cDNA library; not shown: GFP, C-terminal, kept
T1 sequence (looked up): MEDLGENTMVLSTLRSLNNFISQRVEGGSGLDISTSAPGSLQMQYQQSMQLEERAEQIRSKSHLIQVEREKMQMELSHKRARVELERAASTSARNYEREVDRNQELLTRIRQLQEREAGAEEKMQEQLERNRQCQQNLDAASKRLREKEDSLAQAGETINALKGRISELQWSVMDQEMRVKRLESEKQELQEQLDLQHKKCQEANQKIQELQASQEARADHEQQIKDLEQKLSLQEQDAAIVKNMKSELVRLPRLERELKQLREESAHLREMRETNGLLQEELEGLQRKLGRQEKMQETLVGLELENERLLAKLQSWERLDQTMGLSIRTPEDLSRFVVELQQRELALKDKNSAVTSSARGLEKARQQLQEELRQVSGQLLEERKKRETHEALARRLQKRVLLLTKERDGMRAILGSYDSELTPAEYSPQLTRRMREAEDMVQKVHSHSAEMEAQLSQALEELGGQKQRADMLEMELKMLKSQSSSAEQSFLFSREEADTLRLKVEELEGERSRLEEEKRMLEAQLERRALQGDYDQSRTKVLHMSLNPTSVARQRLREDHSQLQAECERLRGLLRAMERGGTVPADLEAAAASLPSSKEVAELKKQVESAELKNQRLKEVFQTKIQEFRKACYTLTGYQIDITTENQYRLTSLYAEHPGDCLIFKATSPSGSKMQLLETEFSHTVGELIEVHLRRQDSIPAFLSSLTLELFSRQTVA
Put plainly: co-IP; purified proteins incubated together, immunoprecipitated with anti-Flag or anti-GFP antibody, western blotting. On the technique in general: Immunoblotting shows a protein as a band on a membrane.

In a further test the target is T2, Flag-Mad1 (human, UniProt Q9Y6D9 1-718).
T2 construct: Mad1, human; cDNA amplified from a HeLa cell cDNA library; also called Flag-Mad1 (FL); source: HEK293T, purified (anti-Flag beads, 600 mM NaCl wash, eluted by 3 x Flag peptides); not shown: Flag, N-terminal, kept
T2 sequence (looked up): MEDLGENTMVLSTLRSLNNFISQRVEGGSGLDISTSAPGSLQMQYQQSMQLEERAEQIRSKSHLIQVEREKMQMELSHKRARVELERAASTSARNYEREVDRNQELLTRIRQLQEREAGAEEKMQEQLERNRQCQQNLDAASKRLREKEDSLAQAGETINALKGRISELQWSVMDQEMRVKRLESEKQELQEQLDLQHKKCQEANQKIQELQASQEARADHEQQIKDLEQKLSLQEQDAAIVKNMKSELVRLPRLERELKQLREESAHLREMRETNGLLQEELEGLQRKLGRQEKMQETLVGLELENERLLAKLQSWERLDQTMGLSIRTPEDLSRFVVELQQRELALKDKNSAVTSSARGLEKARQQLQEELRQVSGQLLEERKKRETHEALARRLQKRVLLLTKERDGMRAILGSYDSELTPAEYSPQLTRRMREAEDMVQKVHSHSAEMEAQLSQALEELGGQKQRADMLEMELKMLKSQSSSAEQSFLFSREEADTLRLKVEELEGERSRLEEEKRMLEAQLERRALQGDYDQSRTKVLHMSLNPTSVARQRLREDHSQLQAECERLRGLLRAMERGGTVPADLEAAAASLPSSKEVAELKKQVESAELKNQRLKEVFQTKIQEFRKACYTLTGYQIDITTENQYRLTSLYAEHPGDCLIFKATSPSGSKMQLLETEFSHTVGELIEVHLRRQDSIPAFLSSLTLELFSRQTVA
Described as above.

The target of test [1] is T3, GST-Mad1 (176–718 amino acids) (human, UniProt Q9Y6D9 176-718).
T3 construct: source: E. coli BL21, purified (Glutathione Sepharose 4B, eluted by glutathione); not shown: GST, N-terminal, kept
T3 sequence (looked up): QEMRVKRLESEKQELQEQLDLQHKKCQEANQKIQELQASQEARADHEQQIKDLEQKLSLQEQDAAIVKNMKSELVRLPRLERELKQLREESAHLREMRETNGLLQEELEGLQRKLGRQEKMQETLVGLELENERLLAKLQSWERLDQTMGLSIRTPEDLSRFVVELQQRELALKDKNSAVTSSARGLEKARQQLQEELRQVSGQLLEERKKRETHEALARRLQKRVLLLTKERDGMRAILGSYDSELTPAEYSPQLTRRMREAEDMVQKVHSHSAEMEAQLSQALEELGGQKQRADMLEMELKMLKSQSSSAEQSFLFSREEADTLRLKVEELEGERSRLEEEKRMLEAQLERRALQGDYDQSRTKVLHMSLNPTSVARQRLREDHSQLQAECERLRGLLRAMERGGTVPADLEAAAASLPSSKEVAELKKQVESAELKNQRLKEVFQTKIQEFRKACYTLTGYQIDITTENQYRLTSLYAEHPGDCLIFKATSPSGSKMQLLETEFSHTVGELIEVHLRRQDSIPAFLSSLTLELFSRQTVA
Put plainly: pull-down; about 0.2 μg MBP-Cep57 fragment coupled to Amylose Magnetic beads incubated with about 0.2 μg purified, eluted GST-tagged protein; washed five times with lysis buffer; western blotting with anti-GST.

The test “Flag-Cep57” deals with B1. Put plainly: co-IP; purified proteins incubated together, immunoprecipitated with anti-Flag or anti-GFP antibody, western blotting.
Test [2] concerns the target T4, MBP-Cep57 (1–242 amino acids) (human, UniProt Q86XR8 1-242).
T4 construct: also called MBP-Cep57N; source: E. coli BL21, purified (Amylose Magnetic beads); not shown: MBP, N-terminal, kept
T4 sequence (looked up): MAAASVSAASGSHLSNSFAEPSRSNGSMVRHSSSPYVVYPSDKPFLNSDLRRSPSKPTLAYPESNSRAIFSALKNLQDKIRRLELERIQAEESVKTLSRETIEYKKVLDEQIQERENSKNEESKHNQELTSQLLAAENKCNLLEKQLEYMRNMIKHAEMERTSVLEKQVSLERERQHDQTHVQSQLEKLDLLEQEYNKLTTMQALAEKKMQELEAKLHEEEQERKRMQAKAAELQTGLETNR
Put plainly: pull-down; about 0.2 μg MBP-Cep57 fragment coupled to Amylose Magnetic beads incubated with about 0.2 μg purified, eluted GST-tagged protein; washed five times with lysis buffer; western blotting with anti-GST.

For the molecule B1, in the test with Mad1-GFP, the binding result is listed as “binds”.

B2: GST-Cep57 (195–500 amino acids) (domain or fragment, human, UniProt Q86XR8 195-500, looked up)
chain: EYNKLTTMQALAEKKMQELEAKLHEEEQERKRMQAKAAELQTGLETNRLIFEDKATPCVPNARRIKKKKSKPPEKKSSRNYFGAQPHYRLCLGDMPFVAGKSTSPSHAVVANVQLVLHLMKQHSKALCNDRVINSIPLAKQVSSRGGKSKKLSVTPPSSNGINEELSEVLQTLQDEFGQMSFDHQQLAKLIQESPTVELKDKLECELEALVGRMEAKANQITKVRKYQAQLEKQKLEKQKKELKATKKTLDEERNSSSRSGITGTTNKKDFMKLRPGEKRRKNLQLLKDMQSIQNSLQSSSLCWDY
notes: also called C terminus of Cep57; C-terminal Cep57; source: E. coli, purified (Glutathione Sepharose 4B); not shown: GST, N-terminal, kept
On to B2, for which the binding result with Flag-Mad1 is on record as “binds”.

B3: MBP-Cep57 (151–500 amino acids) (domain or fragment, human, UniProt Q86XR8 151-500, looked up)
chain: RNMIKHAEMERTSVLEKQVSLERERQHDQTHVQSQLEKLDLLEQEYNKLTTMQALAEKKMQELEAKLHEEEQERKRMQAKAAELQTGLETNRLIFEDKATPCVPNARRIKKKKSKPPEKKSSRNYFGAQPHYRLCLGDMPFVAGKSTSPSHAVVANVQLVLHLMKQHSKALCNDRVINSIPLAKQVSSRGGKSKKLSVTPPSSNGINEELSEVLQTLQDEFGQMSFDHQQLAKLIQESPTVELKDKLECELEALVGRMEAKANQITKVRKYQAQLEKQKLEKQKKELKATKKTLDEERNSSSRSGITGTTNKKDFMKLRPGEKRRKNLQLLKDMQSIQNSLQSSSLCWDY
notes: Cep57, human, residues 151-500; source: E. coli BL21, purified (Amylose Magnetic beads); not shown: MBP, N-terminal, kept
With B3, the binding result in test [1] is “binds”.

B4: GST-Mis12 (natural protein, human, UniProt Q9H081 1-205, looked up)
chain: MSVDPMTYEAQFFGFTPQTCMLRIYIAFQDYLFEVMQAVEQVILKKLDGIPDCDISPVQIRKCTEKFLCFMKGHFDNLFSKMEQLFLQLILRIPSNILLPEDKCKETPYSEEDFQHLQKEIEQLQEKYKTELCTKQALLAELEEQKIVQAKLKQTLTFFDELHNVGRDHGTSDFRESLVSLVQNSRKLQNIRDNVEKESKRLKIS
notes: Mis12, human; cDNA amplified from a HeLa cell cDNA library; also called Mis12 from bacteria; WT GST-Mis12; source: E. coli BL21, purified (Glutathione Sepharose 4B, eluted by glutathione); not shown: GST, N-terminal, kept
For the molecule B4, the binding result (with Flag-Cep57; in test [2]) was “binds” in each case.
